Source: the nanobody polyreactivity screen of Harvey et al. (2022)

Assay: yeast display, Sf9 membrane polyspecificity reagent, FACS + sequencing; frameworks hold sequencing errors
Procedure, shortened: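 Genes from sorted yeast were amplified by colony PCR, read by MiSeq 2 × 250 sequencing and filtered on CDR length. These cells carried a synthetic nanobody library in Saccharomyces cerevisiae BJ5465 and were sorted by FACS into low and high (top ~1%) gates on anti-HA and streptavidin fluorescence. Polyreactivity is labelled according to the gate of origin.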

| Sequence | polyreactivity (PSR sort gate) |
| --- | --- |
| QVQLVESGGGLVQAGGSLRLSCSASGIIYKSYAMGWYRQAPGKERELVAAISGGGDTYYADSVKGRFTISRDNAKNTVYLQMNSLKPEDTAVYYCNTDGSQGTIIAIFVKYDYWGQGTQVTVSS | low polyreactivity |
| QVQLVESGGGLVQAGGSLRLSCSASGITFKRYAMGWYRQAPGTERELVAAITISACSTYYADSVKGRFTNSRDIAKNTVYLQMNSLKPEVTAVYYCAAVSYGSWYYYWGQGTHVTVSS | high polyreactivity |
| QVQLVESGGGLVQAGGSLRLSCSASGITFTSYAMGWYRQAPGKERELVASIDSDDSTNYADSVKGRFTISLDNAKNTVYLQMNSLKPEDTAVYYCNADYLTVSWSIPEHVTVRLMYYWGQGTQVTVSS | low polyreactivity |
| QVQLVESGGGLVQAGGSLRLSCSASGITFYRYVMGWYRQAPGKERELVAAISRGGGSTYYADSVKGRFTISRDNAKNTVYLQMNSLKPEDTAVYYCAARAWVQGGIGGQSWFDYWGQGTQVTVSS | high polyreactivity |
| QVQLVESGGGLVQAGGSLRLSCSASGLIFSSYAMGWYRPAPGKERELVAAISRGGSTNYADSVKGRFTISRDNAKNTVYLQMNSLKPEDTAVYYCNDYSWVNRYDYWGQGTQVTVSA | high polyreactivity |
| QVQLVESGGGLVQAGGSLRLSCSASGLIFYDYDMGWYRQAPGKERELVAAISNDASTYYADSVKGRFTISRDNGKNTVYFQMNSLKPEDTAVYYCAAEPYVFGLSSKPFWYNYWGQGTQVTVSS | low polyreactivity |
| QVQLVESGGGLVQAGGSLRLSCSASGRIFDKYTMGWYRQAPGKERELVATITRGGVSTYYADSVKGRFTISRDNAKNTVYLQMTSLKPEDTAVYYCNAVWRLRVRYGYWGQGTQVTVSS | high polyreactivity |
| QVQLVESGGGLVQAGGSLRLSCSASGRIFSLYAMGWYRQAPGKESELVAAITWSSGSTYYADSVKGRFTISRDNAKNTVYLQMNSLKPEDTAVYYCDARVFTLLGYSYEYWGEGTQVTVSS | low polyreactivity |
| QVQLVESGGGLVQAGGSLRLSCSASGRIFVDNALGWYRQAPGKERELVATITSTGSTNYADSEKGRFTISRDNGMNTFYLQMNSLKPEDTAFYYCNADGIMQDYDYWGQVTQVTVSS | low polyreactivity |
| QVQLVESGGGLVQAGGSLRLSCSASGRILRQYAMGWSRQAPGKERELVAAITSSGGSTYYADSVKGRFTISRDNAKNTVYLQMNSLKPEDTAVYYCNARLRGAKYDYLGQGTQVTVSS | high polyreactivity |
| QVQLVESGGGLVQAGGSLRLSCSASGRTFLGYAMGWYRQPPGKERELVAAISWDGTSTYYADSVKGRFTISRDNAKNNVYLQMNSLKTEDTAVYYCAAQYSYRMDYWGQGTQVTVSS | low polyreactivity |
| QVQLVESGGGLVQAGGSLRLSCSASGRTFRGNAMGWSRHAPGKEREMVAAITSSGGSTYYADSVKGRFTISRDNAKNNVHLKMNSLKPEDTAVYYCAKTYVVPQYDYDYWGQGTQVTVSS | low polyreactivity |
| QVQLVESGGGLVQAGGSLRLSCSASGRTFRKYAMGWYRQPPGKESELVAAISWSGGSTYYANSVKGRFTISRDNAKNTVYLQMNSLKPEDTAVYYCAAVPVHTGSLYWGFTTGYDYWGQGTQVTVSS | low polyreactivity |
| QVQLVESGGGLVQAGGSLRLSCSASGRTFRSNAMGWYRQAPGKEREFVAAIRSRGGSTYYADSVKGRFTISRDNAKNSVYLQMNSLKPEDTAVYYCADKHGSTSHDSWGQGTQVSVSS | high polyreactivity |
| QVQLVESGGGLVQAGGSLRLSCSASGRTFRSYTMGWYRQAPGKERELVAAINRGDRTYADSVKGRFTISRDNAKNTVYLQMNSLKPEDTAVYYCNARYYTHRYDYWGQGTQVTVSS | high polyreactivity |
| QVQLVESGGGLVQAGGSLRLSCSASGRTFRWYTMGWYRQAPGKEREFVAAITWSGSSTDYADSVKGRFTISRDNAKNTVYFQMNSLKPEDTAVYYCAAENRRRRDDYWGQGTQVTVSS | high polyreactivity |
| QVQLVESGGGLVQAGGSLRLSCSASGRTFSVYAMGSYRQAPGKERELVAGITSGGSTNYADSVKGRFTISRDNAKNTVYLQMNSLKPEDTAVYYCDAENVYAGFGFVSIVDYWVQGTQVTVSS | low polyreactivity |
| QVQLVESGGGLVQAGGSLRLSCSASGRTFYHYTMGRYIQAPGKERELVAAITSGGSTYYADSVKGRFPISRDNAKNTVYLQMNSLKPEDTAVYYCARVRPLYHYSRYDYWGQGTQVTVSS | high polyreactivity |
| QVQLVESGGGLVQAGGSLRLSCSASGRTFYRNAMGWYRQSPGKESEFVAVISVSGGSTYYADSVKGRFTISRDNAKNTVYLQMNSLKPEDTAVYYCAADEYYTFSCFELRRMDYWGQGTQVTVSS | low polyreactivity |
| QVQLVESGGGLVQAGGSLRLSCSASGRTLTRYTMGWYRKAPGKERELVAGITRSGGSTYYADSVNGRFTISRDNAKNTVYLKMNSLKPEDTAVYYCAVKQRDKFAGGRNDYWGQGTQVTVSS | high polyreactivity |
| QVQLVESGGGLVQAGGSLRLSCSASGSIFFKYAMGWYRQAPGKERELVASITSRGGTTYYADSVKGRFTISRDNAKNTVYLQMNSLKPEDTAVYYCAALRRSSFGYWGQGTQVTVSS | high polyreactivity |
| QVQLVESGGGLVQAGGSLRLSCSASGSIFNYYAMGWYRQPPGKERELVAAISYRTGSTYYADSVKGRFTISRDNSKNTVYLQMNSLKPEDTSVYYCAADTRYGYGYWGQGTQVTVSS | high polyreactivity |
| QVQLVESGGGLVQAGGSLRLSCSASGSIFPYYSMGWYRQAPGQERQLVAAISYSGGRTRYADSVKGRFTISRDNAKNTVYLQMNSLKPEDTAVYYCAVVDRHQPYGRQLDYWGQGTQVTVSS | low polyreactivity |
| QVQLVESGGGLVQAGGSLRLSCSASGSIFRGYTMGLYRQAPGKERELVAGITLRGVSTYYADSVKGRFTISRDNAKNTVYVQMNSLKPEDTAVYYGAVDYGRAVQGDSITYDFNYWGQGTQVTVSS | low polyreactivity |
| QVQLVESGGGLVQAGGSLRLSCSASGSIFRRYAMGWYRQAPGKVRELVAVITTDGSTYYADSVKGRFTISRDNAKNTVYLQMHSLKPEDTAVYYCAAEDYVIGYSGYDYWGQGTQVTVSS | low polyreactivity |
| QVQLVESGGGLVQAGGSLRLSCSASGSIFSENTMGGYRQAPGKKRELVADITSGGSTNYADSVKGRFTISRDNAKNTVYLQMNSLKPEDTAVYYCAADYNGEYDYWGQGTQVTVSS | low polyreactivity |
| QVQLVESGGGLVQAGGSLRLSCSASGSIIVSYTMGWYRQAPGKERELVAAISGGGASTYYADSVKGRFTISRDNAKNTVYLQMNSLKPEDTAVYYCNADGYYDMDYCGQGTQVTVSS | low polyreactivity |
| QVQLVESGGGLVQAGGSLRLSCSASGSILSAYDMGWYRQATGKERELVAAIDSSGGSTYYADSVKGRFTISRDNAKNTVYLQMNSLKPEDTAVYYCAATSLAGYYKFDYWGQGSQVTVSS | low polyreactivity |
| QVQLVESGGGLVQAGGSLRLSCSASGSTFDVYAMGRYRQAPGKERELVAAISRSGGSTYYADSVKGRFTISRDNAKNTVYLQMNSLKPEDTAVYYCAAEVGIVDYDYWGQGTQVTVSS | low polyreactivity |
| QVQLVESGGGLVQAGGSLRLSCSASGSTFFIYAMGWYRQAPWKERELVAAIRSGGTYYADSVKGRFTISRDNAKITVYLQMKSLKPEDTAVYYCAARTRGFRYYYWGQGTQVTVSS | high polyreactivity |
